Measurements reported in article PMC13316013, “Shared structural mechanisms of alternating access between the secondary peptide transporter SbmA and ABC transporters” (Nature Communications, 2026).
One block for each binder: values may come before it.

Key:
SbmA [1] = target: T1, SbmA (Escherichia coli, UniProt P0AFY6); assay: cryo-EM structure; SbmA in complex with Fab S11-1 in lipid nanodiscs (MSP1E3D1; DOPC:POPG:POPO-cardiolipin 13:4:1), SEC in 20 mM MES pH 5.5, 300 KCl; 300 kV; details: both partners purified
T1 construct: SbmA, inner membrane peptide transporter of Escherichia coli, cloned from genomic DNA into pBXC3H; Homodimer; no cleavage is described; also called SbmA-like peptide transporter (SLiPT) family member; source: E. coli MC1061, purified (Nickel Sepharose, SEC) in DDM; for some samples reconstituted into MSP1E3D1 lipid nanodiscs

[2] = target: the molecule itself; assay: as above
SbmA [3] = target: T1, SbmA; assay: cryo-EM structure; SbmA incubated with SB2 in a 1:2 molar ratio, 30 min, 4 °C; complex purified by SEC in TBS pH 7.4, 0.05% DDM; 200 kV (Table 1 names lipid nanodiscs for identifier D); details: both partners purified
SbmA [4] = target: T1, SbmA; assay: as above; details: both partners purified; remark: listed apart in the source

stoichiometry N (SbmA [1]): 1 Fab per SbmA dimer
B1: Fab fragment Fab S11-1 (Fab, V domains shown)
VH: LKLLDSGAELVKPGASVKLSCTASGFNIKDTYMYWVKQRPDQGLEWIGRIDPANGNSKYDPKFQGKATITADTSSNTAYLQVSSLTSEDTAVYYCARWLVRGRRGTMDYWGQGTSVTVSS
VL: DIVMTQSPAILSASPGEKVTMTCRASSSVSYMHWYQQKPGSSPKPWIYATSNLASGVPARFSGSGSGTSYSLTISRVEAEDAATYYCQQWSSNPRTFGGGTKLEIK

B2: SbmA (natural protein, Escherichia coli)
chain: MFKSFFPKPGTFFLSAFVWALIAVIFWQAGGGDWVARITGASGQIPISAARFWSLDFLIFYAYYIVCVGLFALFWFIYSPHRWQYWSILGTALIIFVTWFLVEVGVAVNAWYAPFYDLIQTALSSPHKVTIEQFYREVGVFLGIALIAVVISVLNNFFVSHYVFRWRTAMNEYYMANWQQLRHIEGAAQRVQEDTMRFASTLENMGVSFINAIMTLIAFLPVLVTLSAHVPELPIIGHIPYGLVIAAIVWSLMGTGLLAVVGIKLPGLEFKNQRVEAAYRKELVYGEDDATRATPPTVRELFSAVRKNYFRLYFHYMYFNIARILYLQVDNVFGLFLLFPSIVAGTITLGLMTQITNVFGQVRGAFQYLINSWTTLVELMSIYKRLRSFEHELDGDKIQEVTHTLS
notes: SbmA, inner membrane peptide transporter of Escherichia coli, cloned from genomic DNA into pBXC3H; Homodimer; no cleavage is described; also called SbmA-like peptide transporter (SLiPT) family member; source: E. coli MC1061, purified (Nickel Sepharose, SEC) in DDM; for some samples reconstituted into MSP1E3D1 lipid nanodiscs
stoichiometry N [2]: 2

stoichiometry N (SbmA [3]): 1 sybody per SbmA dimer
stoichiometry N (SbmA [4]): 2 Sb per SbmA dimer
B3: Sybody2 (VHH)
VHH: QVQLVESGGGLVQAGGSLRLSCAASGFPVIANVMYWYRQAPGKEREWVAAIDSSGEYAYYADSVKGRFTISRDNAKNTVYLQMNSLKPEDTAVYYCYVKVGSHYWGQGTQVTVSA
notes: synthetic nanobody (sybody, 16 kDa) selected against biotinylated SbmA T403C; also called SB2; Sb2
